Laboratory results taken from patent US20230183713A1, “SITE-SPECIFIC RECOMBINASES FOR EFFICIENT AND SPECIFIC GENOME EDITING” (TECHNISCHE UNIVERSITÄt DRESDEN, published 2023).
Changes are numbered by the printed parent chain. Names may count otherwise.

How the values were obtained:
[1] = target: T1, Cre recombinase monomer with Q311R mutation
T1 chain: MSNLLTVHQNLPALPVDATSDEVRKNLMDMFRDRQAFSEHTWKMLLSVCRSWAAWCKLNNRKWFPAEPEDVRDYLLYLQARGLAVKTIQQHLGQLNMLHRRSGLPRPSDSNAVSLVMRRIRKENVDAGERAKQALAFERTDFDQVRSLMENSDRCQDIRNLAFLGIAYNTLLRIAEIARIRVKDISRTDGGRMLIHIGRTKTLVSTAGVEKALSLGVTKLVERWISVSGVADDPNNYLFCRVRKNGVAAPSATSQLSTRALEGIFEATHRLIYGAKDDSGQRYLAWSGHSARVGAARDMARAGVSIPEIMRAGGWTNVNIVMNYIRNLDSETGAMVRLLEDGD

[2] = target: T2, Cre recombinase monomer with Y324A mutation
T2 chain: T1 chain with R311Q, Y324A

[3] = target: T3, Cre recombinase monomer with W315L mutation
T3 chain: T1 chain with R311Q, W315L

[4] = target: T4, Cre recombinase monomer with W315C mutation
T4 chain: T1 chain with R311Q, W315C

[5] = target: T5, Cre recombinase monomer with Y324I mutation
T5 chain: T1 chain with R311Q, Y324I

[6] = target: T6, Cre recombinase monomer with Y324K mutation
T6 chain: T1 chain with R311Q, Y324K

[7] = target: T7, Cre recombinase monomer with E176I mutation
T7 chain: T1 chain with E176I, R311Q

[8] = target: T8, Cre recombinase monomer with E176H mutation
T8 chain: T1 chain with E176H, R311Q

[9] = target: T9, Cre recombinase monomer with E176V mutation
T9 chain: T1 chain with E176V, R311Q

[10] = target: T10, Cre recombinase monomer with E176Y mutation
T10 chain: T1 chain with E176Y, R311Q

[11] = target: T11, Cre recombinase monomer with E176M mutation
T11 chain: T1 chain with E176M, R311Q

B1: Cre recombinase monomer with K201N mutation (protein)
chain: T1 chain with K201N, R311Q
Median dimer activity (recombination on loxP) [1]: 95%
Median dimer activity (recombination on loxP) [2]: 26%

B2: Cre recombinase monomer with H289E mutation (protein)
chain: T1 chain with H289E, R311Q
Median dimer activity (recombination on loxP) [3]: 33%
Median dimer activity (recombination on loxP) [1]: 94%

B3: Cre recombinase monomer with H289W mutation (protein)
chain: T1 chain with H289W, R311Q
Median dimer activity (recombination on loxP) [1]: 95%
Median dimer activity (recombination on loxP) [4]: 87%

B4: Cre recombinase monomer with R292E mutation (protein)
chain: T1 chain with R292E, R311Q
Median dimer activity (recombination on loxP) [1]: 50%
Median dimer activity (recombination on loxP) [5]: 70%

B5: Cre recombinase monomer with R292T mutation (protein)
chain: T1 chain with R292T, R311Q
Median dimer activity (recombination on loxP) [1]: 94%
Median dimer activity (recombination on loxP) [6]: 55%

B6: Cre recombinase monomer with W315K mutation (protein)
chain: T1 chain with R311Q, W315K
Median dimer activity (recombination on loxP) [6]: 99%

B7: Cre recombinase monomer with R173I mutation (protein)
chain: T1 chain with R173I, R311Q
Median dimer activity (recombination on loxP) [7]: 40%
Median dimer activity (recombination on loxP) [1]: 93%
Median dimer activity (recombination on loxP) [8]: 42%
Median dimer activity (recombination on loxP) [9]: 44%

B8: Cre recombinase monomer with R173M mutation (protein)
chain: T1 chain with R173M, R311Q
Median dimer activity (recombination on loxP) [10]: 27%
Median dimer activity (recombination on loxP) [1]: 96%
Median dimer activity (recombination on loxP) [8]: 75%
Median dimer activity (recombination on loxP) [9]: 75%
Median dimer activity (recombination on loxP) [11]: 39%

B9: Cre recombinase monomer with R173W mutation (protein)
chain: T1 chain with R173W, R311Q
Median dimer activity (recombination on loxP) [10]: 30%
Median dimer activity (recombination on loxP) [1]: 95%
Median dimer activity (recombination on loxP) [8]: 57%
